Data from PMC4956541.

Substrate: O=S(=O)(O)O
Test: cells, lysate or membranes
Assay type: cell-based, Homo sapiens
Details: ND96(Cl-) bath, pH 7.4, extracellular sulfate, labelled compound

B1: human SLC26A1 (Homo sapiens) (protein)
chain: MDESPEPLQQGRGPVPVRRQRPAPRGLREMLKARLWCSCSCSVLCVRALVQDLLPATRWLRQYRPREYLAGDVMSGLVIGIILVPQAIAYSLLAGLQPIYSLYTSFFANLIYFLMGTSRHVSVGIFSLLCLMVGQVVDRELQLAGFDPSQDGLQPGANSSTLNGSAAMLDCGRDCYAIRVATALTLMTGLYQVLMGVLRLGFVSAYLSQPLLDGFAMGASVTILTSQLKHLLGVRIPRHQGPGMVVLTWLSLLRGAGQANVCDVVTSTVCLAVLLAAKELSDRYRHRLRVPLPTELLVIVVATLVSHFGQLHKRFGSSVAGDIPTGFMPPQVPEPRLMQRVALDAVALALVAAAFSISLAEMFARSHGYSVRANQELLAVGCCNVLPAFLHCFATSAALAKSLVKTATGCRTQLSSVVSATVVLLVLLALAPLFHDLQRSVLACVIVVSLRGALRKVWDLPRLWRMSPADALVWAGTAATCMLVSTEAGLLAGVILSLLSLAGRTQRPRTALLARIGDTAFYEDATEFEGLVPEPGVRVFRFGGPLYYANKDFFLQSLYSLTGLDAGCMAARRKEGGSETGVGEGGPAQGEDLGPVSTRAALVPAAAGFHTVVIDCAPLLFLDAAGVSTLQDLRRDYGALGISLLLACCSPPVRDILSRGGFLGEGPGDTAEEEQLFLSVHDAVQTARARHRELEATDAHL
K0.5: 0.26 ± 0.04 mM
